Test results reported in patent US20100150941A1 (DSO NATIONAL LABORATORIES, published 2010).

Experiments:
[1] = target: T1, hemagglutinin of A/Vietnam/1203/04 (H5N1) on virus (influenza A virus H5N1, …, UniProt Q80A26 6-557); assay: inferred from HI and virus neutralization assays
[2] = target: T1, hemagglutinin of A/Vietnam/1203/04 …; assay: HI assay

B1: VN04-3 (antibody, V domains shown)
VH: QVQLQESGPDLVKPGASVMISCKASGYSFTYYYMHWVKQSHGKTLEWIGRIYPYNGDTNYNRRFKDKAILTVDESSSTAYMELRSLTSEDSAVYFCARDANYEGDWYFDVWGQGTTVTVSS
VL: DIQMTQSPSSFSVSLGDRVTITCKASEDIYNRVAWYQQKPGNAPRLLMSDATSLGAGVPSRFSGSGSGKDHTLSITSLQTEDVATYYCQQYWNTRTFGGGTKLEIKR
**Q.** Does B1 bind [1]?
**A.** binds

B2: VN04-3-huG1 (antibody, V domains shown)
VH: B1 VH
VL: B1 VL
**Q.** Does B2 bind [2]?
**A.** binds
